The target of test [1] is T1, TIGIT (on TIGIT-transfected Jurkat cells) (UniProt Q495A1 22-244, limits assumed).
T1 construct: whole, on cells; also called Jurkat TIGIT; cell-associated TIGIT
T1 sequence (looked up): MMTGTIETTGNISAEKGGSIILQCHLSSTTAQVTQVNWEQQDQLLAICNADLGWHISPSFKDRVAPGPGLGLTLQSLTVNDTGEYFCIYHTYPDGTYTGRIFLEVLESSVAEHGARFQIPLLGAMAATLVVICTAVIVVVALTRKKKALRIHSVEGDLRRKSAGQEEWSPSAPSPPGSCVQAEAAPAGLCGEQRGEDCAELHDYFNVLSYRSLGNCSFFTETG
The test can be described thus: flow cytometry, antibody binding to Jurkat TIGIT cells (MFI), fluorescent anti-human IgG Fc secondary. Here is the method: (§1) 10⁵ cells (RKO, Jurkat TIGIT, and Jurkat LAG-3 for testing antibody binding to PD-L1, TIGIT, and LAG-3, respectively) per well were distributed in 0.1 ml medium to 96-well V-bottom plates. Supernatants were discarded after spinning down cells at 300 g, 5 min at room temperature. Cells were resuspended in […] of a serial dilution of antibodies and incubated for 1 h at room temperature. After incubation, cells were washed by adding 0.15 ml cell staining buffer (PBS containing 1% FBS and 0.1% NaN3) and centrifugation at 300 g, 5 min at room temperature. Supernatants were discarded and cells were washed one more time with 0.15 ml of staining buffer. Cells were subsequently resuspended in […] of secondary antibody (Alexa Fluor 647-conjugated AffiniPure Goat Anti-Human IgG, Fcγ Fragment Specific. Used at 1:500) and incubated at RT for 30 min. Cells were spun down after 0.15 ml cell staining buffer was added, resuspended in 0.12 ml of cell staining buffer, and analyzed by flow cytometry on a NovoCyte flow cytometer (Agilent).
A general note: Flow cytometry measures light scatter and fluorescence of single cells or particles in a stream.

Test [2] has as its target T1, TIGIT (on TIGIT-transfected Jurkat …). Briefly: competition flow cytometry: blocking of biotinylated CD155 binding to Jurkat TIGIT cells. Here is the method:
(§2) 10⁵ cells (RKO for PD-1/PD-L1 blocking, Raji for MHC-II/LAG-3 blocking, and Jurkat TIGIT for CD155/TIGIT blocking) were distributed per well in 0.1 ml medium to 96-well V-bottom plate in duplicate. Supernatants were discarded after spinning down cells at 300 g, 5 min at room temperature. […] After incubation, cells were washed by adding 0.15 ml cell staining buffer (PBS containing 1% FBS and 0.1% NaN3) and centrifugation at 300 g, 5 min at room temperature. Supernatants were discarded and cells were washed one more time with 0.15 ml of staining buffer. Cells were subsequently resuspended in […] of 1:500 Streptavidin-PE and incubated at RT for 30 min. Cells were spun down after 0.15 ml cell staining buffer was added, resuspended in 0.12 ml of cell staining buffer, and analyzed by flow cytometry on a NovoCyte flow cytometer (Agilent).

For test [3] the target is unchanged. The test can be described thus: flow cytometry blocking assay: biotinylated CD155 binding to Jurkat TIGIT cells (MFI), streptavidin detection. Here is the method: as §2
The target in test [4] is T2, PD-L1 (endogenous, on RKO colon cancer cells) (human, UniProt Q9NZQ7 19-290).
T2 construct: whole, on cells; also called cell-associated PD-L1; CD274
T2 sequence (Q9NZQ7 19-290): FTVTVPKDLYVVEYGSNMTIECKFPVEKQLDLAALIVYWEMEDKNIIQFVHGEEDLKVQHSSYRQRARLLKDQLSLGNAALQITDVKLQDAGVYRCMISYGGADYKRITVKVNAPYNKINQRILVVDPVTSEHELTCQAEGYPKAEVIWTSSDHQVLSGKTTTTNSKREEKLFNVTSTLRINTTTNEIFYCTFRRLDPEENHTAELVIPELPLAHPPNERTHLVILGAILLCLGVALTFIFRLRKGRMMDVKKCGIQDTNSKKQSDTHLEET
Briefly: flow cytometry, antibody binding to PDL1+ RKO cells (MFI). Here is the method: as §1

Test [5] deals with T3, LAG-3 (on LAG-3-transfected Jurkat cells) (UniProt P18627 23-525, limits assumed).
T3 construct: whole, on cells; also called Jurkat LAG-3; cell-associated LAG-3
T3 sequence (looked up): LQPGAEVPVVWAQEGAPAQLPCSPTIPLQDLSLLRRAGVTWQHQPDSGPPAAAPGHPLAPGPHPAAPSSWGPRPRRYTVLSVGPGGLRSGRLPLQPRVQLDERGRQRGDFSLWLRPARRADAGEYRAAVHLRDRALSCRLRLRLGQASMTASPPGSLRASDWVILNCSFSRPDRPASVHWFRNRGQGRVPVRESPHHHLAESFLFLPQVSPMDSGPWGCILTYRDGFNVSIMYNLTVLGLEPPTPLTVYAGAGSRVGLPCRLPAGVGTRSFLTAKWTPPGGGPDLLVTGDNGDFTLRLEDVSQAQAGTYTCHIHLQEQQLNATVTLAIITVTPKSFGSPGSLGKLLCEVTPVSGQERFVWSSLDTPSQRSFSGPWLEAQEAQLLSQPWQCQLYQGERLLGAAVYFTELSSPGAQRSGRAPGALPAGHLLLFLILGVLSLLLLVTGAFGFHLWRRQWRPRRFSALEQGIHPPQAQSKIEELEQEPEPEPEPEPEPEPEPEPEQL
The test can be described thus: flow cytometry, antibody binding to Jurkat LAG-3 cells (MFI). Here is the method:
as §1

The record followed here is patent US20250270318A1 (AB THERAPEUTICS, published 2025).

For orientation: EC50 means the concentration giving half of the maximal effect. Low readings indicate a more potent agent, high ones a less potent agent. For orientation: IC50 means the concentration that gives 50% inhibition.

B1: parental anti-TIGIT antibody (antibody, human IgG1, V domains shown)
VH: EVQLVESGGGLVQPGGSLRLSCAASSRTFSRYAMGWFRRAPGKEREFVASISWSGGGLEYAESVKGRFTISRDGSKNTVYLQMNSLAAEDTAVYYCAADPWGSLVNGAVRYEYWGQGTLVTVSS
notes: also called αTIGIT; ABT's parental anti-TIGIT antibody
Molecule B1 returned an EC50 in test [1] of 5.64 nM. Besides, the IC50 in test [2] was about 2.5 nM; in test [3], 2.65 nM. Further, in test [4], the binding result is “no binding (tested: 100 nM)”.

B2: PD-L1/TIGIT BsAb (bispecific antibody, V domains shown)
V domain 1: B1 VH
V domain 2: not shown
notes: also called PD-L1/TIGIT bispecific antibody; TIGIT/PD-L1 bispecific antibody; not shown: linker peptide
With B2, a half-maximal response in test [1] (EC50) required 1.59 nM. Also, the values for the IC50 in test [2] and in test [3] were about 0.3 nM and 0.37 nM, respectively. For the same molecule, the binding result in test [5] is listed as “no binding (tested: 100 nM)”.

B3: tiragolumab (antibody, V domains shown)
VH: EVQLQQSGPGLVKPSQTLSLTCAISGDSVSSNSAAWNWIRQSPSRGLEWLGKTYYRFKWYSDYAVSVKGRITINPDTSKNQFSLQLNSVTPEDTAVFYCTRESTTYDLLAGPFDYWGQGTLVTVSS
VL: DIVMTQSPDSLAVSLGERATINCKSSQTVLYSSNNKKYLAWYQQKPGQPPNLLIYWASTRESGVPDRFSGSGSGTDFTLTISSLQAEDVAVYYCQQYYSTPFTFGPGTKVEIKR
As for B3, a half-maximal effect in test [1] (EC50) was put at 0.31 nM. Further, the IC50 in test [2] is about 0.3 nM; in test [3], 0.29 nM.
